Assay results published in patent US20200255543A1 (ROCKEFELLER UNIVERSITY, published 2020).

Experiments:
recombinant human MERTK [1] = molecular target: T1, recombinant human MERTK (human, UniProt Q12866 21-505, limits assumed); assay: biolayer interferometry, M6 loaded on AMQ sensor, hMer analyte from 5 nM in 2-fold dilutions, 1:1 model, global fit
T1 construct: Analyte in solution in biolayer interferometry; also called hMer
T1 sequence: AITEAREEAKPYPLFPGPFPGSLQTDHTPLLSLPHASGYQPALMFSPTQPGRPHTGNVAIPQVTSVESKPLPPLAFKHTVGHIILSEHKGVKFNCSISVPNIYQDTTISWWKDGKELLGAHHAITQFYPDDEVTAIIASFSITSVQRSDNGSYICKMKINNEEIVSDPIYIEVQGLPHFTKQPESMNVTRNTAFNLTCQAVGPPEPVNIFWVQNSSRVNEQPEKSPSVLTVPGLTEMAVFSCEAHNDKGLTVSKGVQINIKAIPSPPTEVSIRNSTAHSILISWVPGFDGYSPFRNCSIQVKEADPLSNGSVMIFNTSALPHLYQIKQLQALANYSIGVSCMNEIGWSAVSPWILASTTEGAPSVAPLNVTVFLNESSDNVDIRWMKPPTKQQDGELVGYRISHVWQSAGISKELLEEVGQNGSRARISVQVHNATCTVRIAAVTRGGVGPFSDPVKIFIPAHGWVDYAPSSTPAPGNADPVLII
Method: (§1) FIG. 11: M6 binds to MERTK with high affinity. M6 binds to human MERTK with high affinity. A diagram showing antibody binding kinetics for M6 (Mer-M6) against human MERTK (hMer) using biolayer interferometry. Purified M6 was loaded on an AMQ sensor at a concentration of 1 microgram/mL to test binding against analytes in solution. All analytes were prepared at 5 nM with a 2-fold dilution series for a total of 7 concentrations. Kinetic fits were calculated using a 1:1 model, with Local fits for each concentration as well as an overall Global fit.

recombinant human MERTK [2] = molecular target: T1, recombinant human MERTK; assay: biolayer interferometry, M6 loaded on AMQ sensor at 1 ug/mL, hMer in solution at 1.25 nM, local 1:1 fit
Method: as §1

recombinant human MERTK [3] = molecular target: T1, recombinant human MERTK; assay: biolayer interferometry, M6 loaded on AMQ sensor at 1 ug/mL, hMer in solution at 0.1563 nM, local 1:1 fit
Method: as §1

recombinant human MERTK [4] = molecular target: T1, recombinant human MERTK; assay: biolayer interferometry, M6 loaded on AMQ sensor at 1 ug/mL, hMer in solution at 5 nM, local 1:1 fit
Method: as §1

recombinant human MERTK [5] = molecular target: T1, recombinant human MERTK; assay: biolayer interferometry, M6 loaded on AMQ sensor at 1 ug/mL, hMer in solution at 0.0781 nM, local 1:1 fit
Method: as §1

recombinant human MERTK [6] = molecular target: T1, recombinant human MERTK; assay: biolayer interferometry, M6 loaded on AMQ sensor at 1 ug/mL, hMer in solution at 0.625 nM, local 1:1 fit
Method: as §1

recombinant human MERTK [7] = molecular target: T1, recombinant human MERTK; assay: biolayer interferometry, M6 loaded on AMQ sensor at 1 ug/mL, hMer in solution at 5 to 0.0781 nM, global 1:1 fit
Method: as §1

recombinant human MERTK [8] = molecular target: T1, recombinant human MERTK; assay: biolayer interferometry, M6 loaded on AMQ sensor at 1 ug/mL, hMer in solution at 2.5 nM, local 1:1 fit
Method: as §1

recombinant human MERTK [9] = molecular target: T1, recombinant human MERTK; assay: biolayer interferometry, M6 loaded on AMQ sensor at 1 ug/mL, hMer in solution at 0.3125 nM, local 1:1 fit
Method: as §1

B1: monoclonal antibody M6 (antibody, V domains shown)
VH: QVKLEESGPELKKPGETVKISCKASGYTFTNYGMNWVKQAPGKGLKWMGWINTYTGEPTYADDFKGRFVFSLETSASTAYLQINNLKNEDMATYFCARKSTVVSRYFDVWGAGTTVTVSS
VL: DIVLTQTHKFMSTSVGDRVSITCKASQDVGDAVTWCQQKPGQPPKLLIYWASTRHTGVPDRFTGSGSGTDFTLTINNVQSEDLADYFCQQYRSYPLTFGAGTKLELKR
notes: Mouse hybridoma monoclonal antibody; Hybridoma supernatant was used in the ELISA screen, purified antibody in biolayer interferometry; also called Mer-M6
Recombinant human MERTK [1]
  Kd: 4.6 pM
Recombinant human MERTK [2]
  Kd: 49.8 pM
  koff: 0.000156 s⁻¹
  kon: 3.12e+06 M⁻¹ s⁻¹
Recombinant human MERTK [3]
  Kd: 0.0652 pM
  koff: 9.22e-07 s⁻¹
  kon: 1.41e+07 M⁻¹ s⁻¹
Recombinant human MERTK [4]
  Kd: 0.634 pM
  koff: 1.5e-06 s⁻¹
  kon: 2.37e+06 M⁻¹ s⁻¹
Recombinant human MERTK [5]
  Kd: 0.823 pM
  koff: 2.49e-05 s⁻¹
  kon: 3.03e+07 M⁻¹ s⁻¹
Recombinant human MERTK [6]
  Kd: 0.0131 pM
  koff: 7.27e-08 s⁻¹
  kon: 5.57e+06 M⁻¹ s⁻¹
Recombinant human MERTK [7]
  koff: 9.55e-06 s⁻¹
  kon: 2.07e+06 M⁻¹ s⁻¹
Recombinant human MERTK [8]
  Kd: 2.09 pM
  koff: 4.46e-06 s⁻¹
  kon: 2.13e+06 M⁻¹ s⁻¹
Recombinant human MERTK [9]
  Kd: 0.00312 pM
  koff: 3.3e-08 s⁻¹
  kon: 1.06e+07 M⁻¹ s⁻¹
